According to patent US20030022353:

B1: Mch2α (protein)
chain: MSSASGLRRGHPAGGEENMTETDAFYKREMFDPAEKYKMDHRRRGIALIFNHERFFWHLTLPERRRTCADRDNLTRRFSDLGFEVKCFNDLKAEELLLKIHEVSTVSHADADCFVCVFLSHGEGNHIYAYDAKIEIQTLTGLFKGDKCHSLVGKPKIFIIQACRGNQHDVPVIPLDVVDNQTEKLDTNITEVDAASVYTLPAGADFLMCYSVAEGYYSHRETVNGSWYIQDLCEMLGKYGSSLEFTELLTLVNRKVSQRRVDFCKDPSAIGKKQVPCFASMLTKKLHFFPKSN
B2: CPP32 (protein)
chain: MENTENSVDSKSIKNLEPKIIHGSESMDSGISLDNSYKMDYPEMGLCIIINNKNFHKSTGMTSRSGTDVDAANLRETFRNLKYEVRNKNDLTREEIVELMRDVSKEDHSKRSSFVCVLLSHGEEGIIFGTNGPVDLKKITNFFRGDRCRSLTGKPKLFIIQACRGTELDCGIETDSGVDDDMACHKIPVEADFLYAYSTAPGYYSWRNSKDGSWFIQSLCAMLKQYADKLEFMHILTRVNRKVATEFESFSFDATFHAKKQIPCIVSMLTKELYFYH
B3: Mch2β (protein)
chain: MSSASGLRRGHPAVSTVSHADADCFVCVFLSHGEGNHIYAYDAKIEIQTLTGLFKGDKCHSLVGKPKIFIIQACRGNQHDVPVIPLDVVDNQTEKLDTNITEVDAASVYTLPAGADFLMCYSVAEGYYSHRETVNGSWYIQDLCEMLGKYGSSLEFTELLTLVNRKVSQRRVDFCKDPSAIGKKQVPCFASMLTKKLHFFPKSN
B4: ICEγ (protein)
chain: MADKVLKEKRKLFIRSMGEAPQAVQDNPAMPTSSGSEGNVKLCSLEEAQRIWKQKSAEIYPIMDKSSRTRLALIICNEEFDSIPRRTGAEVDITGMTMLLQNLGYSVDVKKNLTASDMTTELEAFAHRPEHKTSDSTFLVFMSHGIREGICGKKHSEQVPDILQLNAIFNMLNTKNCPSLKDKPKVIIIQACRGDSPGVVWFKDSVGVSGNLSLPTTEEFEDDAIKKAHIEKDFIAFCSSTPDNVSWRHPTMGSVFIGRLIEHMQEYACSCDVEEIFRKVRFSFEQPDGRAQMPTTERVTLTRCFYLFPGH

Target: human PARP, P09874
Sequence (P09874 whole entry, looked up): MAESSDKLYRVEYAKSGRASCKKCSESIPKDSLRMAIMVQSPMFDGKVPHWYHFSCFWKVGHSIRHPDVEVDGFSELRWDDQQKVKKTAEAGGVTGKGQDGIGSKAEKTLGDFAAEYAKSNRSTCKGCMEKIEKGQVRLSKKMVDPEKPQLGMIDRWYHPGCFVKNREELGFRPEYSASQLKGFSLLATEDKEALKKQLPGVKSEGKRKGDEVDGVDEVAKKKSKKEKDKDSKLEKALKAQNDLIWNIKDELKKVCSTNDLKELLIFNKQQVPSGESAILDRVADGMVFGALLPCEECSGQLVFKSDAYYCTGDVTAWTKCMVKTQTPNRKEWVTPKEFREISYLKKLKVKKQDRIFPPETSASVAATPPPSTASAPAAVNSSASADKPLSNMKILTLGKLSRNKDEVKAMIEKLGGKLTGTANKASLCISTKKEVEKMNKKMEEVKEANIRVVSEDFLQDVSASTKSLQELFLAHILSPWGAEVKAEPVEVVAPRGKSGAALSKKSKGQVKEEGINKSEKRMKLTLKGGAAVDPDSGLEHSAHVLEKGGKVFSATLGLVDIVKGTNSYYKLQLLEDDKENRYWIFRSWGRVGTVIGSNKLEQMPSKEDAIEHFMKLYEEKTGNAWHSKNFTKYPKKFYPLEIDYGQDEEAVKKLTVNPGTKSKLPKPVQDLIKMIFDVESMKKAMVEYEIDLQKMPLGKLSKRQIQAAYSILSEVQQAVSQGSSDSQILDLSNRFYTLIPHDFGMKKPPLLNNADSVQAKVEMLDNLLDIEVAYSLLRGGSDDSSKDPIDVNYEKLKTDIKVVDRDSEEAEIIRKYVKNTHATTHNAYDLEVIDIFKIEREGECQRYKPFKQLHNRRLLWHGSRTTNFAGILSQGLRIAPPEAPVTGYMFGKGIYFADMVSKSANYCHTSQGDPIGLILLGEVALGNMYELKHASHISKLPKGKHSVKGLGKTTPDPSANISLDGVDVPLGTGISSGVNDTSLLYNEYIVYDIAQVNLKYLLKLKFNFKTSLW

| Protein | cleavage of PARP in vitro, Western blot |
| --- | --- |
| B1 | Mch2α also cleaved PAR: to generate a major product of ˜83 kDa and a minor product of ˜57 kDa similar to that obtained with CPP32 |
| B2 | CPP32 cleaved PARP to generate a major band of ˜90 kDa and a minor band of 57 kDa |
| B3 | PARP was not cleaved by Mch2β or ICEγ |
| B4 | PARP was not cleaved by Mch2β or ICEγ |
